Source: patent US20260055205A1 (published 2026)

T1: cynomolgus monkey CD3 epsilon (cynomolgus monkey, UniProt Q95LI5 22-117, limits assumed)
T1 construct: also called cyCD3e; cyno CD3
T1 sequence (looked up): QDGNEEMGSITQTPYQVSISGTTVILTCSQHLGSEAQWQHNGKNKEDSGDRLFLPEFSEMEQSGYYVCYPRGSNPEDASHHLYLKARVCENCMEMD

T2: cyCD3e-Fc (cynomolgus monkey, UniProt Q95LI5 22-117)
T2 sequence (looked up): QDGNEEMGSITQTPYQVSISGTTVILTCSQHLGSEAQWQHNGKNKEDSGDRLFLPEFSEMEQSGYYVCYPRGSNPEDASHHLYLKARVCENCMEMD


Key:
human PSMA [1] = biological target: T3, human PSMA (human, UniProt Q04609 44-750, limits assumed); assay: binding kinetics, uTCE
T3 construct: also called huPSMA; hPSMA

human CD3 epsilon [2] = biological target: T4, human CD3 epsilon (human, UniProt P07766 23-126, limits assumed); assay: BLI or SPR
T4 construct: also called huCD3e

[3] = biological target: T1, cynomolgus monkey CD3 epsilon; assay: BLI or SPR
cyCD3e-Fc = biological target: T2, cyCD3e-Fc; assay: Octet, purified
Method: (§1) Pool 2 consisted of paTCE molecules each containing PSMA.262 and one of 64 CD3.23 mutation combination variants. Stability and affinity of the individually expressed molecules in the form of crude lysate was evaluated by Octet. […] The binding of these anti-CD3 molecules (CD3.227, CD3.228, CD3.229 and CD3.230) to human and cynomolgus CD3 was measured by Octet and the Tm was measured by Differential Scanning Fluorimetry. All variants were paired with PSMA.262 except for CD3.23 which was paired with PSMA.5.

huCD3e-Fc = huCD3e-Fc (human, UniProt P07766 23-126); assay: Octet, purified
Method: as §1

human CD3 epsilon [4] = biological target: T4, human CD3 epsilon; assay: Octet, crude lysate
Procedure, shortened: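 Binding of anti-CD3 paTCE variants to human and cynomolgus CD3 measured by Octet, using either purified protein or individually expressed crude lysate. Variants were paired with PSMA.262, except CD3.23, which was paired with PSMA.5.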

human PSMA [5] = biological target: T3, human PSMA; assay: binding screen

huCD3e-Fc, sequence (P07766 23-126): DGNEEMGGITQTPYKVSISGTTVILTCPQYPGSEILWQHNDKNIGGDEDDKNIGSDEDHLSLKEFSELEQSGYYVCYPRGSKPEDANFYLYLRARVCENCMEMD
T4 sequence (P07766 23-126 limits assumed): as the sequence (P07766 23-126) above
T3 sequence (Q04609 44-750 limits assumed): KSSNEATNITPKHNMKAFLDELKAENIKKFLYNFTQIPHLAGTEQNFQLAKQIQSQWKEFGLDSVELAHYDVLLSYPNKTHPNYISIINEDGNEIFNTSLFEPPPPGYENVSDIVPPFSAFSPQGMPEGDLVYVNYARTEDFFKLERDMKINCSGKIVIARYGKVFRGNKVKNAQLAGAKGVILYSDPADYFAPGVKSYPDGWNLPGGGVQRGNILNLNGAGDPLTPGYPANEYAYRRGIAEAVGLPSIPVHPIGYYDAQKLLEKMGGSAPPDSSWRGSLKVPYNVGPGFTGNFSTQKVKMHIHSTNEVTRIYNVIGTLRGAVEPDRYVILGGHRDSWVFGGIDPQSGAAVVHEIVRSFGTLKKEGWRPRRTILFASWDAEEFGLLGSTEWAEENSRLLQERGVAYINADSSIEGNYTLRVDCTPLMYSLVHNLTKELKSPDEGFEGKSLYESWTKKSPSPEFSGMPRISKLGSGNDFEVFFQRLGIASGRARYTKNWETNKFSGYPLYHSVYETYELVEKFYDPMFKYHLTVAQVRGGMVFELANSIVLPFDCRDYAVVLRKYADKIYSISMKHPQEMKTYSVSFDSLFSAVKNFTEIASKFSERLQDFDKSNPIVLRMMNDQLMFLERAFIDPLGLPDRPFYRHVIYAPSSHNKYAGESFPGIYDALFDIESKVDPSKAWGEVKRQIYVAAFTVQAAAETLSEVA

Row | Binder | Kd (human PSMA [1]) | koff (human PSMA [1]) | kon (human PSMA [1]) | Kd (human CD3 epsilon [2]) | Kd [3] | Kd (cyCD3e-Fc) | koff (cyCD3e-Fc) | kon (cyCD3e-Fc) | Kd (huCD3e-Fc) | koff (huCD3e-Fc) | kon (huCD3e-Fc) | Kd (human CD3 epsilon [4]) | Kd (human PSMA [5])
1 | uTCE PSMA-VHH; P01E02R3, CD3.23 (bispecific antibody) LTGPATSGSETPGTEVQLVESGGGLVQAGGSLKLSCVANGPTFSTYAMAWFRQAPGKEHEFVAAITGDGDTTNNADSVKGRFTISRDNAKNRVYLQLNSLKPEDTAAYYCAAGVHHTYTIPRLWLYWGQGTQVTVSSGGGGSGGGSELVVTQEPSLTVSPGGTVTLTCRSSNGAVTSSNYANWVQQKPGQAPRGLIGGTNKRAPGTPARFSGSLLGGKAALTLSGVQPEDEAVYYCALWYPNLWVFGGGTKLTVLGATPPETGAETESPGETTGGSAESEPPGEGEVQLLESGGGIVQPGGSLKLSCAASGFTFNTYAMNWVRQAPGKGLEWVARIRSKYNNYATYYADSVKDRFTISRDDSKNTVYLQMNNLKTEDTAVYYCVRHENFGNSYVSWFAHWGQGTLVTVSSGTAEAASASGEAGRSANHTPAG | 0.6 nM | 0.000156 s⁻¹ | 261000 M⁻¹ s⁻¹ | – | – | – | – | – | – | – | – | – | –
2 | AMX-500 (bispecific antibody, also called AC3896; AMX-500-P4) ASSATPESGPGTSTEPSEGSAPGTSESATPESGPGSGPGTSESATPGTSESATPESGPGSEPATSGSETPGTSESATPESGPGTSTEPSEGSAPGSPAGSPTSTEEGTSESATPESGPGSEPATSGSETPGTSESATPESGPGSPAGSPTSTEEGSPAGSPTSTEEGTSTEPSEGSAPGTSESATPESGPGTSESATPESGPGTSESATPESGPGSEPATSGSETPGSEPATSGSETPGSPAGSPTSTEEGTSTEPSEGSAPGTSTEPSEGSAPGSEPATSGSETPGTSESATPEAGRSASHTPAGLTGPGTSESATPESQVQLVESGGGVVQPGRSLRLSCAASGRTFGIYVWGWFRQAPGKEREFVGAMSWSGSNRKVSDSVKGRFTISRDNSKNTLYLQMNSLRAEDTAVYYCAASNKEYGRTWYDFNESDYWGQGTQVTVSSGGGGSGGGSELVVTQEPSLTVSPGGTVTLTCRSSNGAVTSSNYANWVQQKPGQAPRGLIGGTNKRAPGTPARFSGSLLGGKAALTLSGVQPEDEAVYYCALWYPNLWVFGGGTKLTVLSESATPESGPGTSPGATPESGPGTSESATPEVQLVESGGGIVQPGGSLRLSCAASGFTFSTYAMNWVRQAPGKGLEWVGRIRTKRNNYATYYADSVKGRFTISRDDSKNTVYLQMNSLKTEDTAVYYCVRHENFGNSYVSWFAHWGQGTLVTVSSGTATPESGPGEAGRSASHTPAGLTGPATPESGPGTSESATPESGPGSPAGSPTSTEEGTSESATPESGPGSEPATSGSETPGTSESATPESGPGTSTEPSEGSAPGTSTEPSEGSAPGTSTEPSEGSAPGTSTEPSEGSAPGTSTEPSEGSAPGTSTEPSEGSAPGSPAGSPTSTEEGTSTEPSEGSAPGTSESATPESGPGSEPATSGSETPGTSESATPESGPGSEPATSGSETPGTSESATPESGPGTSTEPSEGSAPGTSESATPESGPGSPAGSPTSTEEGSPAGSPTSTEEGSPAGSPTSTEEGTSESATPESGPGTSTEPSEGSAPGTSESATPESGPGSEPATSGSETPGTSESATPESGPGSEPATSGSETPGTSESATPESGPGTSTEPSEGSAPGSPAGSPTSTEEGTSESATPESGPGSEPATSGSETPGTSESATPESGPGSPAGSPTSTEEGSPAGSPTSTEEGTSTEPSEGSAPGTSESATPESGPGTSESATPESGPGTSPSATPESGPGSEPATSGSETPGSEPATSGSETPGSPAGSPTSTEEGTSTEPSEGSAPGTSTEPSEGSAPGSEPATSGSETPGTSESAGEPEA | – | – | – | 90 nM | 70 nM | – | – | – | – | – | – | – | –
3 | uTCE PSMA-VHH; CB01B02R3, CD3.23 (bispecific antibody, also called PSMA.3) LTGPATSGSETPGTQVQLVESGGGLVQAGDSLRLSCVTSGRTFDVYAMGWFRQAPGKERELVAAINWSGSNKFHADSVKGRFTISRDNAWKTLSLQMNSLKPEDTAVYFCAASTRLYGTTWYEFNDSDYWGQGTQVTVSSGGGGSGGGSELVVTQEPSLTVSPGGTVTLTCRSSNGAVTSSNYANWVQQKPGQAPRGLIGGTNKRAPGTPARFSGSLLGGKAALTLSGVQPEDEAVYYCALWYPNLWVFGGGTKLTVLGATPPETGAETESPGETTGGSAESEPPGEGEVQLLESGGGIVQPGGSLKLSCAASGFTFNTYAMNWVRQAPGKGLEWVARIRSKYNNYATYYADSVKDRFTISRDDSKNTVYLQMNNLKTEDTAVYYCVRHENFGNSYVSWFAHWGQGTLVTVSSGTAEAASASGEAGRSANHTPAG | 1.15 nM | 0.000205 s⁻¹ | 178000 M⁻¹ s⁻¹ | – | – | – | – | – | – | – | – | – | –
4 | uTCE PSMA-VHH; P01G03R3, CD3.23 (bispecific antibody) LTGPATSGSETPGTEVQLVESGGGLVQAGGSLRLSCVVSGIAFSPYHMAWYRQAPGKQHEWVAVITTGGTTAYNETVEGRFSISRDNARSTVYLQMNSLKPEDTAVYYCNIYGLSLKWGQGTQVTVSSGGGGSGGGSELVVTQEPSLTVSPGGTVTLTCRSSNGAVTSSNYANWVQQKPGQAPRGLIGGTNKRAPGTPARFSGSLLGGKAALTLSGVQPEDEAVYYCALWYPNLWVFGGGTKLTVLGATPPETGAETESPGETTGGSAESEPPGEGEVQLLESGGGIVQPGGSLKLSCAASGFTFNTYAMNWVRQAPGKGLEWVARIRSKYNNYATYYADSVKDRFTISRDDSKNTVYLQMNNLKTEDTAVYYCVRHENFGNSYVSWFAHWGQGTLVTVSSGTAEAASASGEAGRSANHTPAG | 55.7 nM | 0.000539 s⁻¹ | 9670 M⁻¹ s⁻¹ | – | – | – | – | – | – | – | – | – | –
5 | AC2717 (PSMA.5 with CD3.23) (bispecific antibody, V domains shown, Domains of one TCE chain; also called VHH3) VHH: QVQLVESGGGVVQPGRSLRLSCAASGRTFGIYVMGWVRQAPGKEREFVAAISWSGSNRLVSDSVKGRFTISRDNSKNTLYLQMNSLRAEDTAVYYCAASNRLYGRTWYDFNESDYWGQGTQVTVSS VL: ELVVTQEPSLTVSPGGTVTLTCRSSNGAVTSSNYANWVQQKPGQAPRGLIGGTNKRAPGTPARFSGSLLGGKAALTLSGVQPEDEAVYYCALWYPNLWVFGGGTKLTVL VH: EVQLLESGGGIVQPGGSLKLSCAASGFTFNTYAMNWVRQAPGKGLEWVARIRSKYNNYATYYADSVKDRFTISRDDSKNTVYLQMNNLKTEDTAVYYCVRHENFGNSYVSWFAHWGQGTLVTVSS | – | – | – | – | – | 130 nM | 0.0312 s⁻¹ | 240000 M⁻¹ s⁻¹ | 131 nM | 0.0289 s⁻¹ | 220000 M⁻¹ s⁻¹ | 12.9 nM | 4.8 nM
6 | CD3.229 (bispecific antibody, V domains shown, paTCE with PSMA.262; also called AC3660) VH: EVQLVESGGGIVQPGGSLRLSCAASGFTFNTYAMNWVRQAPGKGLEWVGRIRTKTNNYATYYADSVKGRFTISRDDSKNTVYLQMNSLKTEDTAVYYCVRHENFGNSYVSWFAHWGQGTLVTVSS VL: ELVVTQEPSLTVSPGGTVTLTCRSSNGAVTSSNYANWVQQKPGQAPRGLIGGTNKRAPGTPARFSGSLLGGKAALTLSGVQPEDEAVYYCALWYPNLWVFGGGTKLTVL | – | – | – | – | – | 193 nM | 0.0611 s⁻¹ | 317000 M⁻¹ s⁻¹ | 162 nM | 0.052 s⁻¹ | 321000 M⁻¹ s⁻¹ | 11.9 nM | –
7 | CD3.230 (bispecific antibody, V domains shown, paTCE with PSMA.262; also called AC3661) VH: EVQLVESGGGIVQPGGSLRLSCAASGFTFSTYAMNWVRQAPGKGLEWVGRIRTKTNNYATYYADSVKGRFTISRDDSKNTVYLQMNSLKTEDTAVYYCVRHENFGNSYVSWFAHWGQGTLVTVSS VL: ELVVTQEPSLTVSPGGTVTLTCRSSNGAVTSSNYANWVQQKPGQAPRGLIGGTNKRAPGTPARFSGSLLGGKAALTLSGVQPEDEAVYYCALWYPNLWVFGGGTKLTVL | – | – | – | – | – | 216 nM | 0.0726 s⁻¹ | 336000 M⁻¹ s⁻¹ | 195 nM | 0.0633 s⁻¹ | 325000 M⁻¹ s⁻¹ | 17 nM | –
